Assay results from US20240068004A1 (MBRACE THERAPEUTICS, published 2024).

Columns and labels:
Assay in all cases: alanine scan, high-throughput flow cytometry
[1] = biological target: T1, GRP78 alanine scanning variant E329A (human, UniProt P11021 19-654)
T1 construct: Member of the alanine scanning library of GRP78
Description: (§1) To characterize the binding properties of the antibodies described in Example 1 for GRP78, epitope mapping analysis was carried out by alanine scanning mutagenesis. An alanine scanning library of GRP78 was constructed. Each anti-GRP78 antibody was then screened for binding to each individual GRP78 variant, allowing identification of the target protein residues involved in antibody binding.
(§2) Binding of each test antibody to each GRP78 variant in the alanine scanning library was determined by high-throughput flow cytometry under high stringency conditions (e.g., increased pH, increased salinity, increased temperature and/or increased wash time). Also included in the experiment was a commercially-available monoclonal antibody, 1H11-1H7, which was verified to bind to the wildtype (WT) GRP78 on cells and thus determined to be a suitable positive control under these conditions (Thermo Fisher Scientific, Waltham, MA). Antibody binding to each of the GRP78 variants as measured by the fluorescence signal (raw fluorescence data minus the background), was normalized to its binding to the WT GRP78. For each GRP78 variant, such normalized binding to the test antibodies was plotted relative to that to the control antibody.

[2] = biological target: T2, GRP78 alanine scanning variant R261A (human, UniProt P11021 19-654)
T2 construct: Member of the alanine scanning library of GRP78
Description: as §1, §2

[3] = biological target: T3, GRP78 alanine scanning variant H265A (human, UniProt P11021 19-654)
T3 construct: Member of the alanine scanning library of GRP78
Description: as §1, §2

[4] = biological target: T4, GRP78 alanine scanning variant R279A (human, UniProt P11021 19-654)
T4 construct: Member of the alanine scanning library of GRP78
Description: as §1, §2

T2 sequence (P11021 19-654 R261A limits assumed): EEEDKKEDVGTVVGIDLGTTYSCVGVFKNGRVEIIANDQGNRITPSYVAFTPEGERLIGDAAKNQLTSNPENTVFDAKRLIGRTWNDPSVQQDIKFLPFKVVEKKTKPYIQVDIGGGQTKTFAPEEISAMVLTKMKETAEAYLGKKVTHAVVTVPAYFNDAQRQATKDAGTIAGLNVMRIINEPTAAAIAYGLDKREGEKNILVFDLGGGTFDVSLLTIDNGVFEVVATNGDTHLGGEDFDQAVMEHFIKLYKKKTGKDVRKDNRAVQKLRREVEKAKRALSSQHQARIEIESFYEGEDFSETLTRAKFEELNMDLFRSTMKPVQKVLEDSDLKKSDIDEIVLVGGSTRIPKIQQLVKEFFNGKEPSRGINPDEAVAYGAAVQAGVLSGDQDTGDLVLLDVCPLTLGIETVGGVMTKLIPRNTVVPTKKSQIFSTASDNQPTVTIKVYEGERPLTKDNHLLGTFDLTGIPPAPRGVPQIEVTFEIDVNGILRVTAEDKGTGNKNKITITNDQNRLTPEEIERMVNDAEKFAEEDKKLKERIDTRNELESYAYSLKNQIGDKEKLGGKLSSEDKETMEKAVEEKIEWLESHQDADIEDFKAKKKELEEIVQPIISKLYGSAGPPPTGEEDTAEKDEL
T3 sequence (P11021 19-654 H265A limits assumed): as the sequence (P11021 19-654 R261A limits assumed) above, with A243R, H247A counted along it
T4 sequence (P11021 19-654 R279A limits assumed): as the sequence (P11021 19-654 R261A limits assumed) above, with A243R, R261A counted along it
T1 sequence (P11021 19-654 E329A limits assumed): as the sequence (P11021 19-654 R261A limits assumed) above, with A243R, E311A counted along it

| % binding normalized to WT GRP78 [1] | % binding normalized to WT GRP78 [2] | % binding normalized to WT GRP78 [3] | % binding normalized to WT GRP78 [4] | Binder |
| --- | --- | --- | --- | --- |
| < 20% | < 20% | < 20% |  | anti-GRP78 antibody clone B4 (antibody, IgG1, V domains shown, Fully human mAb formatted as full-length IgG1; also called B4 mAb) VH: QVRLQESGPGLVKPSQTLSLTCTVSGGSISSGGYYWSWIRQHPGKGLEWIGYIYYSGSTYYNPSLESRVTISVDTSKNQFSLKLSSVTAADTAVYYCARYSSIDAFEIWGQGTMVTVSS VL: SYVLTQPPSVSVAPGKTATITCGGDDIGSKSVHWYQQKPGQAPVLVVYDDGDRPSGIPERFSGSNSGNTATLAISRVEAGDEADYYCQVWDSSSDQYVFGSGTKLTVL |
|  | < 20% |  | < 20% | anti-GRP78 antibody clone F6 (antibody, IgG1, V domains shown, Fully human mAb formatted as full-length IgG1; also called F6 mAb) VH: QVQLQQSGPGLVKPPQTLSLTCAISGDSVSSNSAAWNWIRQSPSRGLEWLGRTYYRSKWYNDYAVSVKSRITINPDTSKNQFSLQLNSVTPEDTAVYYCARDPYYYDSSGYYYFDAFDIWGQGTMVTVSS VL: SYELTQPHSVSVAPGQTARITCGGDNIGSKSVHWYQQRPGQAPVLVVYDDSDRPSGIPERFSGSNSENTATLTISGVEAGDEADYYCQVWDSTSHHVVFGGGTKLTVL |
